Test results from paper doi:10.1101/2023.02.06.527249.
pKd: −log10 of the molar value.

Tests used:
[1] = biological target: HLA-C*05:01 (1-278) refolded with β2-microglobulin (1-99) and P2-AV (…); assay: SPR
[2] = biological target: HLA-C*05:01 (1-278) refolded with β2-microglobulin (1-99) and P2-AW (…); assay: SPR
[3] = biological target: HLA-C*05:01 (1-278) refolded with β2-microglobulin (1-99) and P2-IP (…); assay: SPR
[4] = biological target: HLA-C*16:02 on cells loaded with P9 with the Q8S substitution (…) (human | human (endogenous in 721.221)); assay: flow cytometry on cells
[5] = biological target: HLA-C*05:01 on cells loaded with P2-MW with p6 Asn (human | human (endogenous in 721.221)); assay: flow cytometry on cells
[6] = biological target: HLA-C*08:02 on cells loaded with P2-MW with p6 Ile (human | human (endogenous in 721.221)); assay: flow cytometry on cells
[7] = biological target: HLA-C*08:02 on cells loaded with P2-MW with p6 Leu (human | human (endogenous in 721.221)); assay: flow cytometry on cells
[8] = biological target: HLA-C*08:02 on cells loaded with P2-MW with p6 Lys (human | human (endogenous in 721.221)); assay: flow cytometry on cells
[9] = biological target: HLA-C*08:02 on cells loaded with P2-MW with p6 Pro (human | human (endogenous in 721.221)); assay: flow cytometry on cells
[10] = biological target: HLA-C*08:02 on cells loaded with P2-MW with p6 Val (human | human (endogenous in 721.221)); assay: flow cytometry on cells

**Q.** How did the pKd [1] turn out when “2DL1 (1-224), recombinant, refolded (from UniProt P43626 22-245) (domain or fragment)” was run?
**A.** Its pKd is 6.00.

**Q.** What about the pKd [2] of the same substance?
**A.** Its pKd is 5.96.

**Q.** What about the pKd [3] of the same substance?
**A.** Its pKd is 6.36.

**Q.** With “2DS1 (3-200), recombinant, refolded (domain or fragment)” as the substance, how does the pKd [1] read?
**A.** Its pKd is 5.59.

**Q.** What about the pKd [2] of the same substance?
**A.** The pKd was 5.72.

**Q.** And the pKd [3]?
**A.** The pKd was 5.64.

**Q.** “2DS4 (3-200), recombinant, refolded (domain or fragment)” was tested. Which pKd [2] did it give?
**A.** Its pKd is 5.70.

**Q.** “KIR2DS1*001-Fc (from UniProt Q14954 22-245) (Fc fusion)” was tested. Which fold change of binding against unmodified P9 [4] did it give?
**A.** The fold change of binding against unmodified P9 was 5 fold.

**Q.** “KIR2DS4*001 KIR-Ig (KIR-Fc) fusion protein (from UniProt P43632 22-245) (Fc fusion)” was tested. Which percent of the binding with p6 Gly (P2-MW) [5] did it give?
**A.** Its percent of the binding with p6 Gly (P2-MW) is > 25%.

**Q.** What about the percent of the binding with p6 Gly (P2-MW) [6] of the same substance?
**A.** Its percent of the binding with p6 Gly (P2-MW) is > 50%.

**Q.** And the percent of the binding with p6 Gly (P2-MW) [7]?
**A.** Its percent of the binding with p6 Gly (P2-MW) is > 50%.

**Q.** And the percent of the binding with p6 Gly (P2-MW) [8]?
**A.** The percent of the binding with p6 Gly (P2-MW) was > 50%.

**Q.** And the percent of the binding with p6 Gly (P2-MW) [9]?
**A.** The percent of the binding with p6 Gly (P2-MW) was > 50%.

**Q.** What about the percent of the binding with p6 Gly (P2-MW) [10] of the same substance?
**A.** The percent of the binding with p6 Gly (P2-MW) was > 50%.
